Consider three molecules from paper PMC3338870 (Nature, 2012).

Test [1] concerns the target CD25 ectodomain (UniProt P01589).
In test [2] the target is T1, γc ectodomain (human, UniProt P31785 23-262, C-terminally biotinylated (staining reagent for yeast)).
T1 sequence: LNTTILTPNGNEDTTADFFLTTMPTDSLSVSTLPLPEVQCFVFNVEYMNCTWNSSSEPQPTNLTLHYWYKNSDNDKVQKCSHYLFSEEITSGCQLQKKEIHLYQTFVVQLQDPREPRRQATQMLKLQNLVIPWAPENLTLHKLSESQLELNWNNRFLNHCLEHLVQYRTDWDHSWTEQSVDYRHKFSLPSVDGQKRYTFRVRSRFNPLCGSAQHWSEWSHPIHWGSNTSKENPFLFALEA
Nature of the test: crystal structure.

Sequence of CD25 ectodomain (P01589 22-240): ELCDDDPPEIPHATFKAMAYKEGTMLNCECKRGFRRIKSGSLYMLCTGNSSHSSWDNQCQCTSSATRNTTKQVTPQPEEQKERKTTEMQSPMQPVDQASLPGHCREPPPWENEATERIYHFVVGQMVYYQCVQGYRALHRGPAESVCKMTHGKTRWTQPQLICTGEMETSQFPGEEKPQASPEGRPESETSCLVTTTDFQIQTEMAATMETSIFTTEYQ

Regarding “H9 F42A (from UniProt P60568 21-153) (designed binder)”, in test [1], the Kd – broadly, the constant that tells how readily two partners part at equilibrium – came out at 1400 nM. In test [1], “H9 super-2 (IL-2 superkine, second generation) (from UniProt P60568 21-153) (designed binder)” showed a Kd of 6.6 nM.

B1: IL-2Rβ ectodomain (receptor)
chain: AVNGTSQFTCFYNSRANISCVWSQDGALQDTSCQVHAWPDRRRWNQTCELLPVSQASWACNLILGAPDSQKLTTVDIVTLRVLCREGVRWRVMAIQDFKPFENLRLMAPISLQVVHVETHRCNISWEISQASHYFERHLEFEARTLSPGHTWEEAPLLTLKQKQEWICLETLTPDTQYEFQVRVKPLQGEFTTWSPWSQPLAFRTKPAALGKDT
modifications: C-terminally biotinylated (staining reagent for yeast)
Regarding B1, the binding result in test [2] was “binds”.
